Experimental data published in IntAct's records for PubMed 36931259.

B1: 14-3-3 protein sigma (Homo sapiens), P31947 (parent)
chain: MERASLIQKAKLAEQAERYEDMAAFMKGAVEKGEELSCEERNLLSVAYKNVVGGQRAAWRVLSSIEQKSNEEGSEEKGPEVREYREKVETELQGVCDTVLGLLDSHLIKEAGDAESRVFYLKMKGDYYRYLAEVATGDDKKRIIDSARSAYQEAMDISKKEMPPTNPIRLGLALNFSVFHYEIANSPEEAISLAKTTFDEAMADLHTLSEDSYKDSTLIMQLLRDNLTLWTADNAGEEGGEAPQEPQS
B2: 14-3-3 protein sigma (Homo sapiens), P31947 (parent)
chain: B1 chain
partner: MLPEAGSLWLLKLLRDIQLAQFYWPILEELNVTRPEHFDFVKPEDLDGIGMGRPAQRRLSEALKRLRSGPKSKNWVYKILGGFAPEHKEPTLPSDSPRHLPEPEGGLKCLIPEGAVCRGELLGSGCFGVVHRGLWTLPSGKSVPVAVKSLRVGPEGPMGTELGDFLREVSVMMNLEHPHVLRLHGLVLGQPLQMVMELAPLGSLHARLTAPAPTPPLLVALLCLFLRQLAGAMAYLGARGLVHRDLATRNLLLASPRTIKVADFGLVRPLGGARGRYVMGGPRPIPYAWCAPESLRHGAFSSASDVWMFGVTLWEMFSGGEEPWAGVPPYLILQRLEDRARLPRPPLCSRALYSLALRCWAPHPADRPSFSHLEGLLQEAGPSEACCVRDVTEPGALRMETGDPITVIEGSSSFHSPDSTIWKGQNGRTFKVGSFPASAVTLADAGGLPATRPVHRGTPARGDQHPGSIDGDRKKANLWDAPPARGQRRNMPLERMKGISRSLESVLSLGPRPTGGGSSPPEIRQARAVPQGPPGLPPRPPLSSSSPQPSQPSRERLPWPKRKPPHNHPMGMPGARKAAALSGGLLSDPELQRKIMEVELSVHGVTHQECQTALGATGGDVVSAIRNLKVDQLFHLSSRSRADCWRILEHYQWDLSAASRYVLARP
B3: 14-3-3 protein sigma (Homo sapiens), P31947 (parent)
chain: B1 chain
partner: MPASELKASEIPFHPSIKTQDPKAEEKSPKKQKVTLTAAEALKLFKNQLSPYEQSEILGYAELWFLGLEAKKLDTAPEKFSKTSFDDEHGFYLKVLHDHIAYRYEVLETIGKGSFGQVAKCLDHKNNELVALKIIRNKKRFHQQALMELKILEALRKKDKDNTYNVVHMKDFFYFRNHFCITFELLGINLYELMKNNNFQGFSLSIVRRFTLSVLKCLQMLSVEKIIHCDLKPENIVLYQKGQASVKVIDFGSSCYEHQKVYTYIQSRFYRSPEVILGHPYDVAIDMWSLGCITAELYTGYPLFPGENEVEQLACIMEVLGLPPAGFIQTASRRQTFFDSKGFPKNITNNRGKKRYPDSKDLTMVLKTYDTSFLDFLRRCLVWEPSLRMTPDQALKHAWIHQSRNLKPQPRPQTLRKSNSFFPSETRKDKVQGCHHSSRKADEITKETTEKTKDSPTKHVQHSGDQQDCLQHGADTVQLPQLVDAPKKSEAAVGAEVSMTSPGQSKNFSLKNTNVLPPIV
B4: 14-3-3 protein sigma (Homo sapiens), P31947 (parent)
chain: B1 chain
partner: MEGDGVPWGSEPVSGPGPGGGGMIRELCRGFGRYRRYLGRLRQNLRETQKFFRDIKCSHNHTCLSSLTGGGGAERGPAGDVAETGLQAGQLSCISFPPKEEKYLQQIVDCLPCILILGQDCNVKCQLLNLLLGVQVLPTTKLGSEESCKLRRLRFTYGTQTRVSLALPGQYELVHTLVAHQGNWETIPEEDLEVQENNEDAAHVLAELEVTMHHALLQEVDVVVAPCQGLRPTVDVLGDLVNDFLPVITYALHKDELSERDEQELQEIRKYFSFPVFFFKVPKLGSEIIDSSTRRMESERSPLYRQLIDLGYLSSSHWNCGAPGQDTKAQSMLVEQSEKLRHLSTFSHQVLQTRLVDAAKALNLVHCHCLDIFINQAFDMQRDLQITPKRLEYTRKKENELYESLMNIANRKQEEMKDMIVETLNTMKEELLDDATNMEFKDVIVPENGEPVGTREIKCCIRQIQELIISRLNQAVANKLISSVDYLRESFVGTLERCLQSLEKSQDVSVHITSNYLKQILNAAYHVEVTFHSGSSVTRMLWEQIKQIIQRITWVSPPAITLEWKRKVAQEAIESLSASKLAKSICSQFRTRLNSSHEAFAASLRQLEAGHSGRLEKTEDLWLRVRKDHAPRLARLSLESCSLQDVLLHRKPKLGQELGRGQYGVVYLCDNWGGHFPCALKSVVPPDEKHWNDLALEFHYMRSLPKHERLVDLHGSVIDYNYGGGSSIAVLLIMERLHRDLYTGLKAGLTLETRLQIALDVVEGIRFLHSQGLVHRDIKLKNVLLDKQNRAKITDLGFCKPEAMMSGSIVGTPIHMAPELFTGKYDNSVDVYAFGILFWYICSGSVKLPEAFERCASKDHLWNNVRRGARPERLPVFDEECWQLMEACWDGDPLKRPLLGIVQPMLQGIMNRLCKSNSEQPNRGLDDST
B5: 14-3-3 protein sigma (Homo sapiens), P31947 (parent)
chain: B1 chain
partner: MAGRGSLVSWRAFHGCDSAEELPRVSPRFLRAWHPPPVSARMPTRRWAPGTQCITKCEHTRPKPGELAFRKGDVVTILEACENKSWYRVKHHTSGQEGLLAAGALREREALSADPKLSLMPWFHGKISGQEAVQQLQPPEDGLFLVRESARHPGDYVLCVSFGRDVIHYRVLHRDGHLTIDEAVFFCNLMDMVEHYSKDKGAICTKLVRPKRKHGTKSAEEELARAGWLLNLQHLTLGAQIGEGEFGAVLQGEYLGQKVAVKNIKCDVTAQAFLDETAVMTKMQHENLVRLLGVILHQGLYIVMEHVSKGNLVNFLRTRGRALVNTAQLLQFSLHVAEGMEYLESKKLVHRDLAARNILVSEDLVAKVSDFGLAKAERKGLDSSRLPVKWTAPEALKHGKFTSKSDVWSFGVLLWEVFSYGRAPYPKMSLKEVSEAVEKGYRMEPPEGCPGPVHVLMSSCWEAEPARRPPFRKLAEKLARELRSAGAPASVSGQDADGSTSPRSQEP

Variants of: B1
Settings: with gsk3a_human GSK3A

| Variant | effect of a mutation on the interaction |
| --- | --- |
| K49D;R56D;V178D | decreasing interaction strength |

Variants of: B2
Settings: with tnk1_human TNK1, Q13470

| Variant | effect of a mutation on the interaction |
| --- | --- |
| K49E;R56E;V178D | decreasing interaction strength |

Variants of: B3
Settings: with dyrk4_human DYRK4, Q9NR20

| Variant | effect of a mutation on the interaction |
| --- | --- |
| K49E;R56E;V178D | decreasing interaction strength |

Variants of: B4
Settings: with dusty_human DSTYK

| Variant | effect of a mutation on the interaction |
| --- | --- |
| K49E;R56E;V178D | decreasing interaction strength |

Variants of: B5
Settings: with matk_human MATK

| Variant | effect of a mutation on the interaction |
| --- | --- |
| K49E;R56E;V178D | decreasing interaction strength |
